Results taken from publication PMC5998137, “Regulation of the β-hemolysin gene cluster of Streptococcus anginosus by CcpA”.

Biological target: CcpA (Streptococcus anginosus, UniProt A0A412PPL7 1-334)
Experiment: EMSA; 0.5-8 µg CcpA, 5 pmol probe; no HPr or fructose-1,6-bisphosphate; 500-fold unlabeled creC inhibits the shift
Details: protein: recombinant; tags: N-terminal His6; chain copies: 2; label: 5' IRDye700 on strand 1 (probe); blunt

B1: creC (dsDNA)
DNA 1: GTTTACGCGAAAGCGCTTTTTTTATATA
DNA 2: TATATAAAAAAAGCGCTTTCGCGTAAAC
B1: binds.
